Key:
[1] = molecular target: HLA-B*44:05 (Homo sapiens, UniProt P01889, A223V/A65T/A93T/A95T/D201E/D98Y/E176V/E187L/E204Q/E69K/G107R/H137Y/K202T/L105A/L119I/N104T/N87E/Q56L/Q94N/R106L/R155S/R180D/S101N/S121R/S35A/S48T/T118I/V36M/W191S/Y91S); assay: MHC binding assay, UV-ligand exchange ELISA; settings: peptide exchange yield, binding to HLA-B*44:05
[2] = test system: HLA-A*01:01, HLA-A*02:01, HLA-A*03:01, HLA-A*24:02, HLA-B*07:02, HLA-B*08:01 and HLA-B*44:02; assay: HLA alleles the peptides bind to (Table 7); assay type: binding, human; settings: allotype from the group HLA-A*01:01, HLA-A*02:01, HLA-A*03:01, HLA-A*24:02, HLA-B*07:02, HLA-B*08:01, HLA-B*44:02
Description: However, due to similarities in binding pattern such as the relevant anchoring positions some peptides bind to more than one allele, such an overlap is most likely, but not limited to, HLA-A*01 binding peptides also binding to HLA-B*15, HLA-A*03 binding peptides also binding to HLA-A*11, HLA-B*07 binding peptides also binding to HLA-B*35 and HLA-B*51.

[3] = molecular target: HLA-A*02:01 (Homo sapiens, UniProt P04439, D140Y/D185E/D98H/E176V/E277Q/G131W/G231S/I119V/I121R/I166T/I218V/L300P/L318F/N151K/N90K/P208A/P217A/Q86G/Q94H/R138H/R169H/T345S); assay: MHC binding assay, UV-ligand exchange ELISA; settings: peptide exchange yield, binding to HLA-A*02:01
[4] = molecular target: HLA-A*01:01 (Homo sapiens, UniProt P04439, A114D/A174V/A182V/D101N/D185E/E176A/E190D/L180R/Q94H/R68K/S129P/T187R/V100A/V91M/W191G); assay: MHC binding assay, UV-ligand exchange ELISA; settings: peptide exchange yield, binding to HLA-A*01:01

5 (METADRPEW; listed as Homo sapiens) [compound 5]
Peptide exchange [1]: ++++ (75% = ++++)

10 (ILMILQPQL; listed as Homo sapiens) [compound 10]
Binders (HLA alleles the peptides according to the invention bind to) [2]: HLA-A*02:01 | Peptide exchange [3]: ++++ (≥75% = ++++)

11 (TEIGTVIKLF; listed as Homo sapiens) [compound 11]
Peptide exchange [1]: ++++ (75% = ++++)

12 (RLQEGLAAL; listed as Homo sapiens) [compound 12]
Binders (HLA alleles the peptides according to the invention bind to) [2]: HLA-A*02:01 | Peptide exchange [3]: ++++ (≥75% = ++++)

18 (SLSKLVATV; listed as Homo sapiens) [compound 18]
Binders (HLA alleles the peptides according to the invention bind to) [2]: HLA-A*02:01 | Peptide exchange [3]: ++++ (≥75% = ++++)

23 (AETKQFWSA; listed as Homo sapiens) [compound 23]
Peptide exchange [1]: ++++ (75% = ++++)

26 (ETNTIEFIY; listed as Homo sapiens) [compound 26]
Binders (HLA alleles the peptides according to the invention bind to) [2]: HLA-A*01:01 | Peptide exchange [4]: ++++ (≥75% = ++++)

27 (SQAKQITIW; listed as Homo sapiens) [compound 27]
Peptide exchange [1]: ++++ (75% = ++++)

30 (SLKSSILFL; listed as Homo sapiens) [compound 30]
Binders (HLA alleles the peptides according to the invention bind to) [2]: HLA-A*02:01 | Peptide exchange [3]: +++ (≥50% = +++)

36 (KEIEAQEAA; listed as Homo sapiens) [compound 36]
Peptide exchange [1]: ++++ (75% = ++++)

39 (RELGVGIAL; listed as Homo sapiens) [compound 39]
Peptide exchange [1]: ++++ (75% = ++++)

42 (LLSRGILIL; listed as Homo sapiens) [compound 42]
Binders (HLA alleles the peptides according to the invention bind to) [2]: HLA-A*02:01 | Peptide exchange [3]: ++++ (≥75% = ++++)

45 (SLFPISLTV; listed as Homo sapiens) [compound 45]
Binders (HLA alleles the peptides according to the invention bind to) [2]: HLA-A*02:01 | Peptide exchange [3]: ++++ (≥75% = ++++)

48 (TEMSVSALY; listed as Homo sapiens) [compound 48]
Peptide exchange [1]: ++++ (75% = ++++)

54 (ASSPVILLL; listed as Homo sapiens) [compound 54]
Binders (HLA alleles the peptides according to the invention bind to) [2]: HLA-A*01:01 | Peptide exchange [4]: ++ (≥20% = ++)

56 (DVDIHKDLY; listed as Homo sapiens) [compound 56]
Binders (HLA alleles the peptides according to the invention bind to) [2]: HLA-A*01:01 | Peptide exchange [4]: ++++ (≥75% = ++++)

57 (IIIDRILLL; listed as Homo sapiens) [compound 57]
Binders (HLA alleles the peptides according to the invention bind to) [2]: HLA-A*02:01 | Peptide exchange [3]: ++++ (≥75% = ++++)

58 (REQLDGATL; listed as Homo sapiens) [compound 58]
Peptide exchange [1]: ++++ (75% = ++++)

74 (TLNVLITL; listed as Homo sapiens) [compound 74]
Binders (HLA alleles the peptides according to the invention bind to) [2]: HLA-A*02:01 | Peptide exchange [3]: ++ (≥20% = ++)

82 (VLQSLQHEL; listed as Homo sapiens) [compound 82]
Binders (HLA alleles the peptides according to the invention bind to) [2]: HLA-A*02:01 | Peptide exchange [3]: ++++ (≥75% = ++++)

84 (KEFAFLEHSL; listed as Homo sapiens) [compound 84]
Peptide exchange [1]: ++++ (75% = ++++)

97 (ALIVLHLSL; listed as Homo sapiens) [compound 97]
Binders (HLA alleles the peptides according to the invention bind to) [2]: HLA-A*02:01 | Peptide exchange [3]: ++ (≥20% = ++)

102 (FLLLEKGGEL; listed as Homo sapiens) [compound 102]
Binders (HLA alleles the peptides according to the invention bind to) [2]: HLA-A*02:01 | Peptide exchange [3]: ++++ (≥75% = ++++)

105 (LVFESVVAA; listed as Homo sapiens) [compound 105]
Binders (HLA alleles the peptides according to the invention bind to) [2]: HLA-A*02:01 | Peptide exchange [3]: ++++ (≥75% = ++++)

106 (GLLDAFLRL; listed as Homo sapiens) [compound 106]
Binders (HLA alleles the peptides according to the invention bind to) [2]: HLA-A*02:01 | Peptide exchange [3]: ++++ (≥75% = ++++)

108 (SLQESLPNA; listed as Homo sapiens) [compound 108]
Binders (HLA alleles the peptides according to the invention bind to) [2]: HLA-A*02:01 | Peptide exchange [3]: +++ (≥50% = +++)

113 (ALGPMAFRV; listed as Homo sapiens) [compound 113]
Binders (HLA alleles the peptides according to the invention bind to) [2]: HLA-A*02:01 | Peptide exchange [3]: ++++ (≥75% = ++++)

117 (GEAAAARPV; listed as Homo sapiens) [compound 117]
Peptide exchange [1]: +++ (50% = +++)

118 (RLLRLIPIL; listed as Homo sapiens) [compound 118]
Binders (HLA alleles the peptides according to the invention bind to) [2]: HLA-A*02:01 | Peptide exchange [3]: ++++ (≥75% = ++++)

121 (ILVTAWKGV; listed as Homo sapiens) [compound 121]
Binders (HLA alleles the peptides according to the invention bind to) [2]: HLA-A*02:01 | Peptide exchange [3]: +++ (≥50% = +++)

130 (ITPDSIPSV; listed as Homo sapiens) [compound 130]
Binders (HLA alleles the peptides according to the invention bind to) [2]: HLA-A*02:01 | Peptide exchange [3]: +++ (≥50% = +++)

139 (EEGRIITKW; listed as Homo sapiens) [compound 139]
Peptide exchange [1]: ++++ (75% = ++++)

141 (REVAGASAL; listed as Homo sapiens) [compound 141]
Peptide exchange [1]: +++ (50% = +++)

142 (YMLEMDNSMKI; listed as Homo sapiens) [compound 142]
Binders (HLA alleles the peptides according to the invention bind to) [2]: HLA-A*02:01 | Peptide exchange [3]: ++++ (≥75% = ++++)

145 (HLFSVLSAI; listed as Homo sapiens) [compound 145]
Binders (HLA alleles the peptides according to the invention bind to) [2]: HLA-A*02:01 | Peptide exchange [3]: ++++ (≥75% = ++++)

147 (VEAPHLPSF; listed as Homo sapiens) [compound 147]
Peptide exchange [1]: ++++ (75% = ++++)

153 (ALNLSRLTV; listed as Homo sapiens) [compound 153]
Binders (HLA alleles the peptides according to the invention bind to) [2]: HLA-A*02:01 | Peptide exchange [3]: ++++ (≥75% = ++++)

167 (FALGPIIKQL; listed as Homo sapiens) [compound 167]
Binders (HLA alleles the peptides according to the invention bind to) [2]: HLA-A*02:01 | Peptide exchange [3]: +++ (≥50% = +++)

168 (AEGPDHHSL; listed as Homo sapiens) [compound 168]
Peptide exchange [1]: ++++ (75% = ++++)

170 (LLDSWNILI; listed as Homo sapiens) [compound 170]
Binders (HLA alleles the peptides according to the invention bind to) [2]: HLA-A*02:01 | Peptide exchange [3]: ++++ (≥75% = ++++)

181 (FDLNIGSAY; listed as Homo sapiens) [compound 181]
Peptide exchange [1]: ++++ (75% = ++++)

188 (KLPFFTNFL; listed as Homo sapiens) [compound 188]
Binders (HLA alleles the peptides according to the invention bind to) [2]: HLA-A*02:01 | Peptide exchange [3]: ++++ (≥75% = ++++)

200 (GLLGTLRVL; listed as Homo sapiens) [compound 200]
Binders (HLA alleles the peptides according to the invention bind to) [2]: HLA-A*02:01 | Peptide exchange [3]: ++++ (≥75% = ++++)

206 (VEGVHFVQLL; listed as Homo sapiens) [compound 206]
Peptide exchange [1]: ++++ (75% = ++++)

212 (WETRLHNLW; listed as Homo sapiens) [compound 212]
Peptide exchange [1]: ++++ (75% = ++++)

Source: patent publication US11957716B2 (Immatics Biotechnologies GmbH, priority 2021, dated 2024)
